Source: paper PMC5998082, “Development of a Nanobody-based lateral flow assay to detect active Trypanosoma congolense infections” (Scientific Reports, 2018)

Target: the molecule itself
Test: SEC; analytical SEC of TcoPYK alone, ENRICH 650 10/30 column, BioRAD gel filtration standard

B1: recombinant T. congolense pyruvate kinase (enzyme, UniProt G0UYF4 1-499, looked up)
chain: MSQLQHNIGLSIFEPVAKHRANRIICTIGPSTQSVEALKGLMKSGMSVARMNFSHGSYEYHQTTINNVRAAAAELGLHIGIALDTKGPEIRTGLFKDGEATYAPGDTVLVTTDPAFEKIGTKEKFYVDYPQLPNVVRPGGLIYVDDGVLTLRVLSKEDDCTLKCHVNNHHRLTDRKGINLPGCEVDLPAVSEKDRKDLQFGVEQGVDMIFASFIRTADQVREVRAALGEKGKDTLIISKIENHQGVQNIDAIIEASDGIMVARGDLGVEIPAEKVVVAQMCIISKCNVAGKPVICATQMLESMTTNPRPTRAEVTDVANAVFNGADCVMLSGETAKGKYPNEVVQYMVRICIEAQSATHDSVMFNSIKNLQKIPMSPEEAVCSSAVSSAFEVQAKAILVLSNTGRSARLISKYRPNCPIICATTRLLTCRQLNVTRSVESVYYDVDAHGEDNDREKRVQLGVDWAKTKGYVSAGDVMVIVHADHSVKGYPNQTRLVRVR
notes: also called TcoPYK; source: E. coli BL21(DE3), purified (details in the Supplementary Information)
- stoichiometry N: 4
